# Tested on: Saccharomyces cerevisiae
# Assay: transcriptional activation domain activity (GFP:mCherry ratio, weighted mean of sorted bins, harmonized to initial dataset scale) (arbitrary fluorescence ratio units); higher = stronger transcriptional activation
# Conditions: beta-estradiol 1 µM; induction time 4 h
# Outline: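 For this assay, yeast diploids with a GFP reporter carried barcoded protein tiles at URA3, each fused to an estradiol-inducible synthetic transcription factor. Induction was a 1:5 dilution into SC with 1 uM beta-estradiol for 4 hours at 30 °C, followed by sorting into 8 bins by GFP:mCherry ratio and barcode sequencing. Tiles under 50 reads were dropped, and activation activity was calculated as the read-weighted mean of bin median fluorescence, averaged across barcodes and linearly mapped onto the initial dataset scale.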
row,Sequence,transcriptional activation domain activity
1,LFSPFPPSISFPLSSHSSLPPLFPPLFPPLFPPFLPSLCFPLFPSLPFPPLPL,19500
2,MAAGFFFFFFLLSFPLFLSFFFCFPFFFSLPSGISFCLPFAPGVVSSFPFPTR,53800
3,SFLYWGSAGLFGIYVMSFQDSWWYQMEHLWVKYPHWMMRSELKVYYLLQFSYW,21600
4,MLLHVFRLIEIIEILWISCICAILLVVFVILEVCNLFVLGRKISFLMFCVWVI,54400
5,MPGHALVDIQNTFGCTFIGLVISILYLILNFGNVENLEYNMWAMNLQVDITGL,56500
6,SSRKEDKSERRHRHRHRSRSRDRDQRHRRHHRSDSRERNQDGDGERRRRHRRS,26700
7,ENDGEEVEGEEKESSQGAGGLMGRFTKETDDVRLGASQNIGLVLQYLTSFIAC,17000
8,GMPESTVEDVGGPSTATVEEGGPREVEATVQGVEEASTSAPVKRGRGRPRKTS,30800
9,ILDLTVRFWGNVKLLRRLWNGIYHFASYHMSSMTRAKVTIVSDLLLGTYILKR,70700
10,DNLLGMDYYNIDDLLTQELRDLDIPLVPSPKTGDGSSDKKNIDRTWNLGDENN,79900
11,GEGEAKTKKRNKRSKAPVEGEAAETPAAATTEGEEAAAPAAPKKEKKPRKPRA,8960
12,GRAESPYNAKYLTGAFSSGSSNGAATATAASFAVFGMGSETVSSGRSPASNNA,44500
13,TSDTGKKRQIKEEAEEESEEEPPTKRQRRKPVEEKETPKKAAAKPKADKVPAK,40500
14,MLFLMCSLFFFVVFFLWSFFCGLLSLWCICYDISVGAWLTFGLLLVLWLLCIC,23900
15,YYGWLPFGISSILVEIPYCMFFCASFMCGFYWTAGLVNHPVNCGYFYLMLMFF,69900
16,MLSVSLSFPFLLFFFSVSIFLLLLLLFSVSFILLLSLFFCSSFSFFNSFMVFF,43100
17,RAITPMRVWMEVHDRAAFKLVWSEVFRLVSVLTDCPLRFKRLHYGGTMLGINT,45000
18,MSYCIDFPVISSFPAASFYFIFMGTLQDHLPFSLLVYSTLIPFFFFSFLFLSF,41600
19,GAAPPPPPPPPARGGGAAPPPPPPPPPARGGAVPPPPPPPPPSGGGPPPPPPP,33000
20,AAGAAGAKASKAPKASKAAKAPKASGAAGAKKGGKKAGKGAASSGAAKAPAAT,42400
21,AYTSTMFLQWHNHMVEFYHLRCMLGATLRNLDNENPGASLPVQLWLLFAWHML,42100

row,Sequence,transcriptional activation domain activity
1,MVILMMGGEYGHFLGFSFYYFLHVWDGEEYYYCCGFYLSQSLLSILLCILLYL,55400
2,GISHNQLSNDDVLLNPSDTGFSPTDNGDGDDGEPHSTLRMAWLLTRVLEHAPL,46600
3,GEKGRKGGAEEGERRREEGGGRRRDEGERRGEGGAGSREGTGRAGEQGERGSR,19200
4,ASSTAAASAASSAAAAKGGNNNAGKGAAAAKGGAAAAKGGAAAGGAAAAKGGA,24400
5,MSSVAAAESKPEKKQKKDKSSKSEKKRLREDDAADAERKHKKSKSLASSEVAA,15100
6,MFHSIYLVVPSFHPSHALIVSFLFSLLRITLHLLLHFLVLYLLLCILFFWHPE,43100
7,LTQRNTCITGGPFWFFFFFFCLLVFSLPPSLKLFPTLPRITCLFSHVFFFFFP,15700
8,HSGVLRDVHVVFQDRSFCARLAEQIGRRLRMIYSNWRETCCMEMLITLSLRLF,73200
9,MYNMLVCLAIEFLWQHLYFFLFLYLTLCCDTFQLILYTPLSMFLFFIFILLKK,16500
10,MCINMYFWKVFFMWTLIFFGLSYIPLSFPGMSYFFLLQHEIFLIILGNHFLRF,42000
11,RAKNRAKEEESAAQQKQAQHQQHQQHQQHRQGEEAGSAGRAEAAAAAAAAGAD,26200
12,VVVKVALLLRWLVMVYDVLDGHTMLSQLYGLLFNCLDMISLRTHICHLLSLLT,27000
13,LCDNVTTQWREWMFPHNETLPALGQDGINEDNLNETIDNMLIFDFLDDGSENN,109000
14,FFFFLLLLLLFFFLLRFLLLVYYYPNHPTHTYQPISFQFQPTHQIHHNALQHH,32200
15,SQLPSLRLFNSYLALWAIGLISIMLFLLIATWHYARVDWQMQVLAVHHVLNLS,34800
16,IGFYFLEYGQNCFRDDSDGPCWAGRYMVNVWNDLAVLRRLICYAAVQLARQHR,40900
17,HSITNFELVEDAPHQVGFSTPQMTAKQLMESVSELDLPPLTLDEPPQAIKFNL,75900
18,IEHKYTTQVNVFFGIVFSELLKSNTAVRGCLMVGIARVAKSGWMSGLNHIEVF,68500
19,KGETAFVEVDEFNRRKDGKEEGGVHNSDMVIKVYLPPHFRVRIALFVLAIWAF,23800
20,LHAGAAADDARTGGGGGGGTGQGRAEGRDRGAEPGAVRGGEPHGRGRAEAGAH,8730
21,ARAAAQNDDGTPKKGRGRPRKAAAAAATSDEEPAATTPKEPKKRGRKPKAVEP,36000

row,Sequence,transcriptional activation domain activity
1,LLKPNSCHFLLRNDIVFYKWTYYVAVIINVALRFAWTLNLANLSLNPQLLIFI,56100
2,HALRTFVYKAAIIPISLFLVHFRRAFSCLCFCALSGFPRCHLTLLSIMFIFSL,53700
3,MVFFFFGRRGGCLVGFVVLLSFPLSFFLSFKLCLLLPLYYYSICVFFFSCVFF,55600
4,GATSTPAATGTTGGLFGSGGTTTGGFGSTSTPAAGGFGSTSTGGGLFGAKPAT,21400
5,FFFFLLFFPLPFFPSSFPFFFLIHLLISSSLVFPFSSSSSSLTQVFWCLCFFF,57400
6,MSRVYNLFLKAFRYKLPSLYQHIHVILNLPPSMYLEAMFLTLFTLHCPIDVAS,53400
7,TMEMAWLDMGRFFYFLFFYFLFFLLSSFFVFFYSFIYFFFSLLLFFFILWLEM,45900
8,MAGQNNPFVGAVFSGLFLGYMILAAALSIFFLLYFNRVFASIVSWGIRAWTWR,31200
9,ERDEEEDEDEEEEDEGKRRKRRGARSTAAISKRETGKAKDETREDPESRKKRG,23600
10,AMAEKAAEEKPAAKKRGRPPKGPTMVEVVVEAPPAKKRGRPAKEDGAAAAATA,20000
11,NEENIRREQDAADEIAQKLRDDIRSRTGCDVSVGIGSNILQAKVALRKGKPAG,35200
12,MVIQKYMFLYFLFCILIFLCIQDLDQDKYNDSLWCSRPFYCHNLFIIILAFIH,51800
13,GNGGAGAGAGGANANANANANAGNGAAAAGGNNAATAATGGGKAAKAAAAAAA,22600
14,MLLKRVHSKVYVQDCLLIGGRSIFVLDMHLFFKLLLFTAASIRNQTVIMLIFV,54100
15,YFYMRLISCLGLIAHSPMLWATGHNSARHELIQKMDFFPKRIGYLLSRLCVLI,51600
16,MVQCASTECSNEGVSQCGRCKQRFYCGAECQQKDWPAHKKNCKRPNAPPPQMS,17500
17,MVVLCPYNVLQKRERDAFLLALRRCLFAPINHPVYFSDVVFADIFTSYAKVLG,44000
18,LHRYPIIRRGVALQTGKGKRKRMYQLIVVGNGDGLVGYGEGKNEDMGMAASKS,28500
19,FLLTVYHIELLRNKSGDCSFMLRYFMNQGVNNSSLSTCMEHVAEAVVSTFINE,30600

# — the supplement of paper PMC12636428
